From article PMC10937712, “Natural variation in OsMYB8 confers diurnal floret opening time divergence between indica and japonica subspecies”

T1: OsMYB8 (Oryza sativa, UniProt A0A0P0V5Q1 51-278)
T1 sequence: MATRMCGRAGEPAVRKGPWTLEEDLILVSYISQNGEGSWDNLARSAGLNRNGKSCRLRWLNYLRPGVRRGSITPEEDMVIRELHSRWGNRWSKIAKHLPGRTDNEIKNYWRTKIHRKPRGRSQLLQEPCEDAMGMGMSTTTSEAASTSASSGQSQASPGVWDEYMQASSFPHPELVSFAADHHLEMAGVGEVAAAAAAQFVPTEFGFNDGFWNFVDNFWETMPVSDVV

B1: JAR1-P1-probe (dsDNA)
DNA 1: AAAATAAATGACTTAGGAAAGAACCAAAACATCTTACATTATAGTATAAAGAAG
DNA 2: CTTCTTTATACTATAATGTAAGATGTTTTGGTTCTTTCCTAAGTCATTTATTTT
B2: JAR1-P3-probe (dsDNA)
DNA 1: CAGTGTACCTAGTGATGTACCCGCCGAATACGTACGCGTGTATGCATGGGTAGAGA
DNA 2: TCTCTACCCATGCATACACGCGTACGTATTCGGCGGGTACATCACTAGGTACACTG

Biological target: T1, OsMYB8
Experiment: EMSA; Beyotime chemiluminescent EMSA kit binding buffer (composition, salt, pH not stated), 20 min, room temperature, 5% native PAGE; 5x and 20x cold competitor
Settings: protein: recombinant; tags: N-terminal GST (pGEX-4T1); label: biotin; blunt

Binder	binding result
B1	binds
B2	binds
